The values that follow come from US20150148520A1 (INDIANA UNIVERSITY RESEARCH AND TECHNOLOGY, published 2015).

The IC50 is the concentration that gives 50% inhibition.

The target in test [1] is T1, human IGF-1 receptor (human, UniProt P08069 31-1367).
T1 construct: whole, on cells; Phosphorylation assay: receptor transfected HEK293 cells; also called IGF-1
The experiment in a line: SPA competition, [125I]-IGF-1, IGF-1R membranes. As to the method: (§1) Non-specifically bound (NSB) radioactivity was measured in the wells with a four-fold concentration excess of “cold” native ligand than the highest concentration in test samples. Total bound radioactivity was detected in the wells with no competitor. Percent specific binding was calculated as following: % Specific Binding=(Bound-NSB/Total bound-NSB)×100. IC50 values were determined by using Origin software (OriginLab, Northampton, Mass.).

Test [2] addresses T1, human IGF-1 receptor. Put plainly: cell-based or functional assay.
In test [3] the target is T2, human insulin receptor (human, UniProt P06213 28-1382).
T2 construct: whole, on cells; Phosphorylation assay: receptor transfected HEK293 cells; also called Insulin
The experiment in a line: SPA competition, [125I]-insulin, IR membranes. As to the method: as §1

The target of test [4] is T2, human insulin receptor. Put plainly: cell-based or functional assay.

Bridges are numbered along the chain shown (N, C = ends). Roman numbers before positions name the chains, in order. Where no end group is shown, it is not given here. [ ]: non-standard residue; d: D form. Phe(4-NH2) = Nc1ccc(C[C@H](N)C(=O)O)cc1

B1: IGF-1 A: B (E10Y16L17)-E31E32 B-COOH (ligand)
chain 1: GIVDECCFRSCDLRRLEMYCA-NH2
chain 2: GPETLCGAELVDALYLVCGDRGFYFNKPTEE-OH
modifications: disulfide I:6-I:11, I:20-II:18, I:7-II:6; ends not checked
Take B1: the “activity (0.55 nM)” value with human IGF-1 receptor [1] stood at 3.1%.

B2: IGF-1 A: B (H5D10Y16L17) DPI (ligand)
chain 1: GIVDECCFRSCDLRRLEMYCA-NH2
chain 2: GPEHLCGADLVDALYLVCGDRGFY-NH2
modifications: disulfide I:6-I:11, I:20-II:18, I:7-II:6; ends not checked
Regarding B2, the “% IGF” value in the test with human IGF-1 receptor [2] was 7.1%. Further, the “activity (0.55 nM)” value with human IGF-1 receptor [1] is 11.8%.

B3: IGF1 A:B(Y^B16L^B17)(p-NH2-F)^A19amide (ligand)
chain 1: GIVDECCFRSCDLRRLEM[Phe(4-NH2)]CA
chain 2: GPETLCGAELVDALYLVCGDRGFYFNKPT-NH2
modifications: disulfide (positions not given here); not fully specified (bridges); also: C-terminal amide, chain not given here
In the test with human insulin receptor [3], B3 had an IC50 of 1.08 nM.

B4: IGF-1 A: IGF-1 B (1-8)-In (9-17)-IGF-1 B (18-30) (ligand)
chain 1: GIVDECCFRSCDLRRLEMYCA-NH2
chain 2: GPETLCGSHLVEALYLVCGDRGFYFNKPT-NH2
modifications: disulfide I:6-I:11, I:20-II:18, I:7-II:6; ends not checked
As to B4, the “activity (0.55 nM)” value in the test with human IGF-1 receptor [1] turned out to be 0.4%.

B5: IGF-1 A (H8 A9 N21): B(H5D10Y16L17) DPI A-COOH (ligand)
chain 1: GIVDECCHASCDLRRLEMYCN-OH
chain 2: GPEHLCGADLVDALYLVCGDRGFY-NH2
modifications: disulfide I:6-I:11, I:20-II:18, I:7-II:6; ends not checked
Regarding B5, the “% IGF” value in the test with human IGF-1 receptor [2] was found to be 181%. Also, the “activity (0.55 nM)” value with human IGF-1 receptor [1] is 13.6%.

B6: IGF-1 A (H8 A9 N21): B (H5D10Y16L17 A22) DPI A-COOH (ligand)
chain 1: GIVDECCHASCDLRRLEMYCN-OH
chain 2: GPEHLCGADLVDALYLVCGDAGFY
modifications: not fully specified (C-terminus); ends and bridges not checked
Turning to B6, the “% IGF” value with human IGF-1 receptor [2] is 7.7%. In addition, in the test with human IGF-1 receptor [1], the “% IGF-1 (in test)” value turned out to be 2.3%, the IC50 stood at 22.8 nM and the “activity (0.55 nM)” value is 2.4%.

B7: IGF-1 A: B (D10Y16L17) DPI A-COOH (ligand)
chain 1: GIVDECCFRSCDLRRLEMYCA-OH
chain 2: GPETLCGADLVDALYLVCGDRGFY-NH2
modifications: disulfide I:6-I:11, I:20-II:18, I:7-II:6; ends not checked
Turning to B7, in the test with human insulin receptor [4], the “% Insulin” value came out at 1580%. In addition, the “% IGF” value in the test with human IGF-1 receptor [2] turned out to be 112%. In the test with human IGF-1 receptor [1], the “activity (0.55 nM)” value worked out at 8.1%.

B8: IGF-1 A: In (1-17)-IGF-1 B (18-30) (ligand)
chain 1: GIVDECCFRSCDLRRLEMYCA-NH2
chain 2: FVNQHLCGSHLVEALYLVCGDRGFYFNKPT-NH2
modifications: disulfide I:6-I:11, I:20-II:19, I:7-II:7; ends not checked
For B8, the “activity (0.55 nM)” value with human IGF-1 receptor [1] came to 0.9%.

B9: IGF-1 A: In B (1-5)-IGF-1 B (YL) (6-30) (ligand)
A chain: GIVDECCFRSCDLRRLEMYCA-NH2
B chain: FVNQHLCGAELVDALYLVCGDRGFYFNKPT-NH2
modifications: disulfide I:6-I:11, I:20-II:19, I:7-II:7; not fully specified
Turning to B9, in the test with human IGF-1 receptor [1], the “activity (0.55 nM)” value was determined as 2%.

B10: IGF-1 A: B (E10Y16L17) DPI (ligand)
A chain: GIVDECCFRSCDLRRLEMYCA-NH2
B chain: GPETLCGAELVDALYLVCGDRGFY-NH2
modifications: disulfide I:6-I:11, I:20-II:18, I:7-II:6; not fully specified
On to B10, for which the “activity (0.55 nM)” value with human IGF-1 receptor [1] was 2.4%.
